Where two headings read alike, the source gives them in different places. *1 amine or outer side, *2 acyl side, *3 side chain or, on linkers, in order; H or OH if unused. Where a SMILES comes first, the peptide text is derived from it. Bridges are numbered along the chain shown (N, C = ends). Roman numbers before positions name the chains, in order. Where no end group is shown, it is not given here. [ ]: non-standard residue; d: D form. The star is where a group is joined. X1 = O=C(CCOCCOCCOCCOCCOCCOCCOCCOCCOCCOCCOCCOCCOCCOCCOCCOCCOCCOCCOCCOCCOCCC(=O)[*:2])[*:1]; X2 = CCNC(=O)CCOCCOCCOCCOCCOCCOCCOCCOCCOCCOCCOCCOCCOCCOCCOCCOCCOCCOCCOCCOCCOCCC(=O)*; Lys(Me2) = CN(C)CCCC[C@H](N)C(=O)O Bounds are passed on as bounds.

One assay deals with T1, murine IL-17A (Mus musculus, UniProt Q62386).
T1 construct: host or cells: added to MLE-12 mouse epithelial cells (ATCC CRL2110)
T1 sequence (Q62386 26-158): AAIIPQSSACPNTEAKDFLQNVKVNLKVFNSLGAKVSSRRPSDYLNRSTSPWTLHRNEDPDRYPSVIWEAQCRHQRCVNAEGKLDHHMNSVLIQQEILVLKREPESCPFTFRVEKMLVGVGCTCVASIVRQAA
The experiment in a line: Murine functional cell assay, MLE-12 mouse epithelial cells, KC production. The format is cell-based. As for the experimental part:
[…]. For inhibitor screen, human BJ fibroblast cells (ATCC CRL2522) (American Type Culture Collection, VA) were used. For mouse cell based assay MLE-12 mouse epithelial cells (ATCC CRL2110) were used. Both cell lines were maintained in ATCC recommended media. Cells were seeded at 5 × 10^3 cells/well into 96-well flat-bottom microtiter plates in which peptides that had been pre-diluted with cytokines (1 ng/mL for human IL-17A or 15 ng/mL for mouse IL-17A) in culture medium. Cells were incubated at 37 °C for 16–24 hrs, and supernatants were collected and analyzed by ELISA for either human CXCL1/GRO-α (R&D Systems DY275) or mouse CXCL1/KC (R&D Systems DY453).
Figure S4. Inhibition of IL-17A induced murine keratinocyte-derived cytokine (KC). MLE-12 mouse epithelial cellswere cultured in the presence of IL-17A […]
which time cell culture were removed for analysis of KCproduction.Data are mean and error bars of +/-standard deviation of duplicatedmeasurements […]
(1 picture or pasted object on this page, not shown here)

Assay [1] concerns the target T2, human IL-17A (Homo sapiens, UniProt Q16552).
T2 construct: host or cells: added to BJ human fibroblasts (ATCC CRL2522)
The experiment in a line: BJ human fibroblast cell assay, IL-17A stimulated GRO-α production. Format: cell-based. The following applies: BJ human fibroblast cells, 1 ng/ml human IL-17A. An excerpt: For inhibitor screen, human BJ fibroblast cells (ATCC CRL2522) (American Type Culture Collection, VA) were used. For mouse cell based assay MLE-12 mouse epithelial cells (ATCC CRL2110) were used. Both cell lines were maintained in ATCC recommended media.

The target of assay [2] is T3, human IL-17A (human, UniProt Q16552 24-155). The experiment in a line: cell-based or functional assay.
T3 sequence (Q16552 24-155): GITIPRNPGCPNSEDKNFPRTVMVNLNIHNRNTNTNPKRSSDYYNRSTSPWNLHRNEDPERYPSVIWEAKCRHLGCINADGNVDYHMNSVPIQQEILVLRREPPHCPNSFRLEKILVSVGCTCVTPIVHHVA
For assay [3], the target named is T4, biotinylated recombinant human IL-17A (rhIL-17, R&D Systems #317-ILB) (human, UniProt Q16552 24-155, biotinylated).
T4 construct: IL-17A, human, recombinant; also called Biotinylated IL-17A; source: bought: R&D Systems
T4 sequence (Q16552 24-155): as above
The following applies: both partners purified.

Assay [4] deals with T3, human IL-17A.
Assay [5] concerns the target T5, biotinylated mouse IL-17A (mouse, UniProt Q62386 26-158, biotinylated).
T5 sequence (looked up): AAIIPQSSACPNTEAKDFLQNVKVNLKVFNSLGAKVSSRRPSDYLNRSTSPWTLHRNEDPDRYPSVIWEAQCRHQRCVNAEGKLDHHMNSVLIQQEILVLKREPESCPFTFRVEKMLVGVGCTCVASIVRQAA
Description: cell-based or functional assay.

The target of assay [6] is T5, biotinylated mouse IL-17A. The experiment in a line: SPR; Biacore 3000; biotinylated protein captured on a streptavidin chip (about 2500 to 3500 RUs); peptide injected at 50 μl/min, 180 s association, at least 600 s dissociation; 10 mM HEPES pH 7.4, 150 mM NaCl, 0.01% P20, 3% DMSO; single site model, global fit. The following applies: both partners purified. Background: In SPR one partner is held on a chip, and binding of the other changes the refractive index at the surface.

T2 sequence (Q16552 24-155): as the sequence (Q16552 24-155) above

At murine IL-17A, Ac-IHVTIPADLWDWINK-NH2 [Compound 30] yielded a half-inhibitory concentration (IC50) above 1000 nM.

For `CC[C@H](C)[C@H](NC(C)=O)C(=O)N[C@H](C(=O)N[C@H](C(=O)N[C@H](C(=O)N[C@H](C(=O)N1CCC[C@H]1C(=O)N[C@@H](C)C(=O)N[C@@H](CC(=O)O)C(=O)N[C@@H](CC(C)C)C(=O)N[C@@H](Cc1c[nH]c2ccccc12)C(=O)N[C@@H](CC(=O)O)C(=O)N[C@@H](Cc1c[nH]c2ccccc12)C(=O)N[C@H](C(=O)N[C@@H](CCCCNC(=O)CCOCCOCCOCCOCCOCCOCCOCCOCCOCCOCCOCCOCCOCCOCCOCCOCCOCCOCCOCCOCCOCCC(=O)NCCCC[C@H](NC(=O)[C@@H](NC(=O)[C@H](Cc1c[nH]c2ccccc12)NC(=O)[C@H](CC(=O)O)NC(=O)[C@H](Cc1c[nH]c2ccccc12)NC(=O)[C@H](CC(C)C)NC(=O)[C@H](CC(=O)O)NC(=O)[C@H](C)NC(=O)[C@@H]1CCCN1C(=O)[C@@H](NC(=O)[C@@H](NC(=O)[C@@H](NC(=O)[C@@H](NC(=O)[C@@H](NC(C)=O)[C@@H](C)CC)[C@@H](C)O)C(C)C)[C@@H](C)O)[C@@H](C)CC)[C@@H](C)CC)C(=O)N[C@@H](CCCCN(C)C)C(N)=O)C(=O)N[C@@H](CCCCN(C)C)C(N)=O)[C@@H](C)CC)[C@@H](C)CC)[C@@H](C)O)C(C)C)[C@@H](C)O` [Compound 45] (I: Ac-ITVTIPADLWDWIK[Lys(Me2)]-NH2 / II: Ac-ITVTIPADLWDWIK[Lys(Me2)]-NH2; linker I:14-II:14 via X1), the IC50 against human IL-17A [1] came out at 0.1 nM; on murine IL-17A (MLE-12 cells, 15 ng/ml murine IL-17A, KC production, read-out: IC50, murine IL-17A), 41 nM.

At human IL-17A [1], `CCNC(=O)CCOCCOCCOCCOCCOCCOCCOCCOCCOCCOCCOCCOCCOCCOCCOCCOCCOCCOCCOCCOCCOCCC(=O)NCCCC[C@H](NC(=O)[C@@H](NC(=O)[C@H](Cc1c[nH]c2ccccc12)NC(=O)[C@H](CC(=O)O)NC(=O)[C@H](Cc1c[nH]c2ccccc12)NC(=O)[C@H](CC(C)C)NC(=O)[C@H](CC(=O)O)NC(=O)[C@H](C)NC(=O)[C@@H]1CCCN1C(=O)[C@@H](NC(=O)[C@@H](NC(=O)[C@@H](NC(=O)[C@@H](NC(=O)[C@@H](NC(C)=O)[C@@H](C)CC)[C@@H](C)O)C(C)C)[C@@H](C)O)[C@@H](C)CC)[C@@H](C)CC)C(=O)N[C@@H](CCCCN(C)C)C(N)=O` [Compound 48] (Ac-ITVTIPADLWDWIK(X2)[Lys(Me2)]-NH2) gave a concentration for half-maximal inhibition (IC50) of 21 nM.

In turn, Ac-TIPADLWDWINK-NH2 [Compound 34] gave a concentration for half-maximal inhibition (IC50) against human IL-17A [1] above 1000 nM.

B1: peptide 1 (peptide)
peptide: Ac-IVVTMPADLWDWIKA
modifications: not fully specified (C-terminus)
notes: 15-mer linear peptide from phage display; made on Rink resin; a C-terminal amide is surmised; also called phage peptide 1; source: synthetic peptide
B1: in the assay with human IL-17A [2], the “Cell IC50: inhibition of GRO-α production in BJ human fibroblast cells stimulated with 1 ng/ml IL-17A” value came to 370 nM. Besides, in assay [3], the 50% inhibitory concentration (IC50) worked out at 80 nM.

B2: peptide 24 (peptide)
peptide: Ac-IVVTIPADLWDWIRA
modifications: not fully specified (C-terminus)
notes: analogue of peptide 2, I at position 5; made on Rink resin; a C-terminal amide is surmised; source: synthetic peptide
B2: the “Cell IC50: inhibition of GRO-α production in BJ human fibroblast cells stimulated with 1 ng/ml IL-17A” value in the assay with human IL-17A [2] was found to be 18 nM. For the same molecule, the IC50 in assay [3] was found to be 3 nM.

Ac-IHVTIPADLWDWI (not fully specified (C-terminus)) [peptide 36] came in with a Cell IC50: inhibition of IL-17A signaling in BJ human fibroblast cells stimulated with 1 ng/ml IL-17A with human IL-17A [4] of 183 nM.

B3: high affinity IL-17A peptide antagonist (HAP) (peptide)
peptide: Ac-IHVTIPADLWDWINK
notes: 15-residue peptide that combines the key residues found by SAR; made on Rink resin; a C-terminal amide is surmised; also called 30; peptide 30; source: synthetic peptide
Regarding B3, in assay [5], the “IC50 in a murine functional cell assay using 15 ng/ml murine IL-17A (inhibition of murine IL-17A signaling)” value was above 1000 nM. In addition, in assay [6], the Kd was found to be 30.1 ± 0.1 nM.

Usually IC50 stands for the concentration that inhibits the measured activity by half. The term Kd denotes the equilibrium constant for the complex coming apart. A higher Kd goes with weaker binding.

The values above are taken from article PMC4869123 (Scientific Reports, 2016).
